Values quoted from earlier work in PMC3931689.
pKi: −log10 of the molar value.

Target: Protein phosphatase 1 (Mus musculus) (UniProt P62137)
Sequence of UniProt P62137 (P62137 2-330): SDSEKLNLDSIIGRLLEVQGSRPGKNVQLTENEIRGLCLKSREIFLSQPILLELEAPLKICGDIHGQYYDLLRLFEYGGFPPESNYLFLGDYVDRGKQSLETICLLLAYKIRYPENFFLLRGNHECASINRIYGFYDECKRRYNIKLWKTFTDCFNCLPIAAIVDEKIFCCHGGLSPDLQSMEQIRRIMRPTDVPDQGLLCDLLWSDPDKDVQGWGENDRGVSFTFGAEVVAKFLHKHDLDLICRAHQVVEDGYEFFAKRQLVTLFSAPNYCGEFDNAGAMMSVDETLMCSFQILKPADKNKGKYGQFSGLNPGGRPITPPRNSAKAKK

pKi: 9.00
Substance: Inhibitor-1 (from UniProt Q9ERT9)
